Assay results taken from patent US12319747B2, “Methods of using anti-SP17 immunotherapeutics” (Medicovestor, Inc., priority 2023, dated 2025).
Entries after “also recorded” stand apart in the source; their conditions may differ.

System: 33 normal human tissues
Assay: Immunohistochemistry on a normal tissue microarray (specificity)
Details: 33 normal tissues, 2-3 human donors per tissue
Description: The specificity of the chAB2 antibody for Sp17 was determined with immunohistochemistry on a normal tissue microarray, which consisted of 33 normal tissues obtained from 2-3 human donors per tissue. The normal tissues included brain, eye, adrenal gland, hypophyseal, thyroid, parathyroid, tonsil, thymus, spleen, heart, lung, larynx, esophagus, stomach, small intestine, colon, liver, pancreas, salivary gland, kidney, bone, skeletal, skin, peripheral nerve, mesothelial, breast, ovary, endometrium, cervix, testis, and prostate.

B1: chAB2: mouse-human chimeric anti-Sp17 monoclonal antibody; human VH/VL (SEQ ID NO: 3, 4) in mouse IgG2a heavy chain and mouse kappa light chain (antibody, V domains shown)
VH: QVQLQQSGAEVKKPGSSVKVSCKASGGTFSSYAISWVRQAPGQGLEWMGRIIPILGIANYAQKFQGRVTITADKSTSTAYMELSSLRSEDTAVYYCARPSEEVVAAYGAFDIWGQGTTVTVSS
VL: EIVLTQSPLSLPVRPGEPASISCRASQSLLRSDGFNYLDWYLQKPGQSPQLLVYLGSNRASGVPDRFSGSGSGTDFTLKISRVEAEDVGVYYCMQAVQTPYIFGQGTKLEIK
modifications: mouse IgG2a and kappa constant regions
  binding to normal human tissues / cross-reactivity: bound to testis and did not bind to normal tissues; also recorded: lack detectable cross-reactivity
